Where two headings read alike, the source gives them in different places.
Key:
[1] = biological target: T1, Pituitary Adenylate Cyclase-Activating Polypeptide 38 (PACAP38) (Homo sapiens, C-terminal lysine is amidated); test: cell-based or functional assay
T1 peptide: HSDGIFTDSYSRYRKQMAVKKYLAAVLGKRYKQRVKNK

[2] = biological target: T1, Pituitary Adenylate Cyclase-Activating …; test: cell-based or functional assay
[3] = biological target: T2, Pituitary Adenylate Cyclase-Activating Polypeptide 27 (PACAP27) (Homo sapiens, C-terminal leucine is amidated); test: cell-based or functional assay
T2 peptide: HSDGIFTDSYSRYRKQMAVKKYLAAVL

[4] = biological target: T1, Pituitary Adenylate Cyclase-Activating …; test: cell-based or functional assay
[5] = biological target: T2, Pituitary Adenylate Cyclase-Activating …; test: SPR, antibody immobilized
Procedure: (§1) Binding affinities of monoclonal antibodies for human PACAP were estimated using SPR on the PROTEON™ XPR36 (Bio-Rad, Hercules, Calif.). Antibody was immobilized to the surface of general amine coupling (“GLC” or “GLM”) Chips (Bio-Rad, Hercules, Calif.). […] Antigen (ranging from 1.23 nM to 100 nM) was typically run sequentially with association times of 2-4 minutes and dissociation times of 3-120 minutes grouped with the PROTEON™ Manager Software (v3.1.0.6 (Bio-Rad, Hercules, Calif.)) and fitted using a 1:1 Langmuir binding model.

[6] = biological target: T1, Pituitary Adenylate Cyclase-Activating …; test: DELFIA TRF cell-surface binding: antibody pre-incubated with PACAP38, complex added to PAC1-R-expressing PC-12 cells, Eu anti-human IgG detection; PACAP38 held on the cell surface is the target
[7] = biological target: T3, Vasoactive Intestinal Peptide (VIP) (human); test: competitive HTRF: unlabelled VIP (10x) against biotinylated PACAP38 (35 nM) for the titrated antibody
T3 construct: also called human VIP
T3 peptide: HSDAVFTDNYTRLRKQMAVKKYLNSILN
Procedure: In parallel, 10 μl of an antibody dilution series (highest final concentration of 100 nM) were incubated with 10 μl of N-terminal or C-terminal biotinylated PACAP38 (35 nM final) alone, or in combination with either PACAP27 (350 nM final) or VIP (350 nM final), i.e., 10× PACAP27 or 10×VIP, respectively, in a HTRF plate. 20 μl of Eu³⁺ cryptate labeled anti-hu Fc donor and 20 μl of d2-labeled streptavidin acceptor were added to each well and incubated for 1 hour at room temperature. Fluorescence was measured at 620 and 665 nm with a delay of […].

[8] = biological target: T1, Pituitary Adenylate Cyclase-Activating …; test: DELFIA TRF cell-surface binding: antibody pre-incubated with PACAP38, complex added to PAC1-R-expressing PC-12 cells, Eu anti-human IgG detection; PACAP38 held on the cell surface is the target
[9] = biological target: T1, Pituitary Adenylate Cyclase-Activating …; test: SPR, antibody immobilized
Procedure: as §1

[10] = biological target: T1, Pituitary Adenylate Cyclase-Activating …; test: DELFIA TRF cell-surface binding: antibody pre-incubated with PACAP38, complex added to PAC1-R-expressing PC-12 cells, Eu anti-human IgG detection; PACAP38 held on the cell surface is the target
[11] = biological target: T1, Pituitary Adenylate Cyclase-Activating …; test: as above

B1: Ab10.H (antibody, V domains shown)
VH: EVQLVESGGGLVQPGGSLRLSCAASGIDLNSYYMTWVRQAPGKGLEWIGFIDAGGDAYYASWAKGRFTISRDNSKNTVYLQMNSLRAEDTAVYFCARDLDLWGQGTLVTVSS
VL: DAQLTQSPSTLSASVGDRVTITCQSSESVYGNYLAWFQQKPGKAPKFLIYEASKLESGVPSRFSGSGSGTEFTLTISSLQPDDFATYYCAGGDISEGVAFGGGTKVEIKR
**Q.** B1 was tested. Which “IC50, 1 nM PACAP38-induced human VPAC2-R mediated cAMP increase” value [1] did it give?
**A.** 988 pM

**Q.** And the “IC50, 5 nM PACAP38-induced human VPAC1-R mediated cAMP increase” value [2]?
**A.** 1340 pM

**Q.** And the “IC50, 0.1 nM PACAP27-induced PAC1-R mediated cAMP increase” value [3]?
**A.** 84 pM

**Q.** And the “IC50, 0.1 nM PACAP38-induced PAC1-R mediated cAMP increase” value [4]?
**A.** 163 pM

B2: Ab1 (antibody, human IgG1, kappa, N297A, V domains shown)
VH: QSVEESGGRLVTPGTPLTLTCTVSGFSLSSAVMNWVRQAPGKGLEWIGSIVASGTTYYASWANGRFTISKTSSTTMDLKMTSPTTEDTATYFCARGGGEFFIWGPGTLVTVSS
VL: DPVMTQTPSSTSAAVGGTVTISCQSSESVYSNYLSWYQQKPGQPPNFLIYQASNLASGVPSRFKGSGSGTQFTLTITDLECDDAATYYCAGGYSENIVGFGGGTEVVVKR
notes: full-length antibody, rabbit variable regions on human constant regions
**Q.** With B2 as the binder, how does the Kd [5] read?
**A.** ≤ 0.01 nM

B3: Ab3.H (antibody, V domains shown)
VH: EVQLVESGGGLVQPGGSLRLSCAASGFSFSSSDYMCWVRQAPGKGLEWIGCIDAGSSGDTYFASSAKGRFTISRDNSKNTVYLQMNSLRAEDTAVYFCARHLYGSITFAFGLWGQGTLVTVSS
VL: AAQMTQSPSTLSASVGDRVTITCQASQSIGSDLAWYQQKPGKAPKLLIYDASTLASGVPSRFSGSGSGTEFTLTISSLQPDDFATYYCQGTYYSSGWYTAFGGGTKVEIKR
**Q.** With B3 as the binder, how does the “EC50 (read off the curve)” value [6] read?
**A.** ~3 nM

B4: Ab9 (antibody, human IgG1, kappa, N297A, V domains shown)
VH: EQSGGGAEGGLVKPGGSLKLSCKASGFTISRDYWICWVRQAPGKGLEWIGCISAGGGSTDYANWVNGRFTLSRDIDQSTGCLQLNSLTDADTAMYYCAGNLEIWGQGTLVTVSS
VL: AQVLTQTPSSVSAAVGGTVTINCQSSPSIYSGAFLSWFQQKPGQPPKFLIYEASKLASGVPSRFSGSGSGTQFTLTISDVQCDDAATYYCLGFYDCSSVDCHAFGGGTEVVVKR
notes: as for B2
**Q.** Does B4 bind [7]?
**A.** no binding

B5: Ab12.H (antibody, V domains shown)
VH: EVQLVESGGGLVQPGGSLRLSCAASGFSLSSYAMGWVRQAPGKGLEWIGDISTYGTTDYASWVYGRFTISRDNSKNTVYLQMNSLRAEDTAVYFCARDYWLSLWGQGTLVTVSS
VL: AAQLTQSPSTLSASVGDRVTITCQSSQSVYDNNALAWYQQKPGKAPKLLIYAASTLASGVPSRFSGSGSGTEFTLTISSLQPDDFATYYCLGGYYDPADNAFGGGTKVEIKR
**Q.** Which “EC50 (read off the curve)” value [8] does the source give for B5 here?
**A.** ~3 nM

**Q.** What about the Kd [9] of the same binder?
**A.** 0.026 nM

**Q.** And the koff [9]?
**A.** 1e-05 s⁻¹

B6: Ab4.H (antibody, V domains shown)
VH: EVQLVESGGGLVQPGGSLRLSCAASGFSLSSYDMSWVRQAPGKGLEWIGIINTNDDTWYASWVKGRFTISRDNSKNTLYLQMNSLRAEDTAVYYCARISDAYVFDYAYYFTLWGQGTLVTVSS
VL: DIQMTQSPSTLSASVGDRVTITCLASQNIYNSLAWYQQKPGKAPKLLIYRASTLASGVPSRFSGSGSGTEFTLTISSLQPDDFATYYCQQGAGADNIGNPFGGGTKVEIKR
**Q.** With B6 as the binder, how does the Kd [5] read?
**A.** 0.031 nM

**Q.** What about the koff [5] of the same binder?
**A.** 1e-05 s⁻¹

**Q.** What about the “EC50 (read off the curve)” value [10] of the same binder?
**A.** ~4 nM

B7: Ab3 (antibody, human IgG1, kappa, N297A, V domains shown)
VH: QEQLVESGGGLVQPEGSLTLTCTASGFSFSSSDYMCWVRQAPGKGLEWIGCIDAGSSGDTYFASWAKGRFTISKTSSTTVTLQMTSLTAADTATYFCARHLYGSITFAFGLWGQGTLVTVSS
VL: AAVLTQTPSPVSAAVGGTVTINCQASQSIGSDLAWYQQKPGQPPKLLIYDASTLASGVPSRFSGSGSGTQFTLTISGVQCDDAATYYCQGTYYSSGWYTAFGGGTEVVVKR
notes: as for B2
**Q.** Does B7 bind [7]?
**A.** no binding

B8: Ab5.H (antibody, V domains shown)
VH: EVQLVESGGGLVQPGGSLRLSCAASGFSLSSYAMIWVRQAPGKGLEWVGIIYDNGDTYYASSAKGRFTISRDNSKNTVYLQMNSLRAEDTAVYFCAREPGSTTQNDLWGQGTLVTVSS
VL: DVQMTQSPSTLSASVGDRVTITCQASENIYNSLLWYQQKPGKAPKLLIYRASTLASGVPSRFSGSGSGTEFTLTISSLQPDDFATYYCQNYYNIWTNGAAFGGGTKVEIKR
**Q.** With B8 as the binder, how does the “EC50 (read off the curve)” value [11] read?
**A.** ~3 nM
